# Test results: the supplement of paper PMC12636428
# Test system: Saccharomyces cerevisiae
# Assay: transcriptional activation domain activity (GFP:mCherry ratio, weighted mean of sorted bins, harmonized to initial dataset scale) (arbitrary fluorescence ratio units); higher = stronger transcriptional activation
# Conditions: beta-estradiol 1 µM; induction time 4 h
# In short: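 Barcoded protein tiles fused to an estradiol-inducible synthetic transcription factor were integrated at the yeast URA3 locus, in diploids carrying a GFP reporter. Cultures were diluted 1:5 into SC with 1 uM beta-estradiol, held 4 hours at 30 °C, sorted into 8 bins by GFP:mCherry ratio, and barcodes sequenced. Tiles under 50 reads were discarded. Activation activity is the read-weighted mean of bin median fluorescence, averaged across barcodes, then linearly mapped onto the initial dataset scale.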
row,Sequence,transcriptional activation domain activity
1,VTHHYGNRVGVRWLTNGIKCYYVPFAIIHRNAIFPTVWSLFPILRNILIRERI,63400
2,VKRVAFGCLSTILALYLVHKYTYEHPFILSDNRHYSFYVWKKIYRRHWMVRYC,61000
3,MLLSAHFIDFFLLLLLLLLLHLIVPLIFILHHSLLFFLVLPIVCNYFFSWLPV,78400
4,SEPTAGNEGKEETSAPKKEESKPAESEKKAEEPKQEQPKKEEKKAEGKPASGS,31400
5,ESKDKSKEGKSKRGDKTLDTKGKSEEENKKGGDKKDEKKKDEKKKEEEEKEKA,25400
6,LIHVVNLAQVLAVLIHRTVYGLLPIFEVMSCAIFPFLVSMWHIAFLLMYTVML,45700
7,MGREHSAPLDSSSKQGAPRRTQRAQLPHNSLCRMGLKTNMKWTHSIRQDKRAE,35600
8,EYDEDAARRIAERVHARAIGLTCGAAPPQVGGRSCASAVWSPIRVAVSTVCIQ,44700
9,MFIVCLFLFMILHYSFMFYIFGSNYLLLLLLVLLSWWFFLLYFPTFIFLFGVL,48700
10,YVRRARGYVMYGLFQLMLRFLLAGFFFFSFRGGDMGIGCGYRLLLLLFFFFIY,35800
11,EREILWRAYLRLIKHVNSIFKIRIAYEWTEDYVIKYLWSAAGYCLISIPILFT,77100
12,YGVPIPQNSPATTTNLSGSVDEPQYQRRNIDFVRYDEEYVYHEDMDDELTMLH,28400
13,HSTLLYCHLLLLPFLSSCWALFFLFPLSFGSLFFLFFFFLFLFGAFSFFLSSL,39600
14,MGWVHLIGRCLILPVHYVVPFFIFFYFAYTSILTTSIGLLGMDLSLRLVFLCS,51000
15,MQETNGNTTAADQGSRHDVPPPRRPTRSRNGCMTCRRRKVRCDEQRPRCSHCE,8920
16,MIVMNQPNYIFDEFAIIISVYISSISNLAFYFGYDFLVLLFLQNLLEFIIMCY,76800
17,MVSFFFSLCFSSFSYLLFPHFLSFFLFFSLCCHFFPFVSTFPPILFFIMNVSF,67100
18,LTQSRGFIWPPILLAVFFSALGGFYWWSASFFLLASPVAFAPCLFWVLLLFLF,18000
19,MVVFLYLVIYHWSKVNRVSFRCAAFCCIAHLIENVFFVIMVKVKGPSKFCAGI,76900
20,TQQLEFWLPWQWIQANVFFPCVSYIYFRDWREMMEILLSYRSIEMDGLAFCLV,69300
21,DNMDSDFLSRTPNYNAFSLEATSHNPADNANELGSQSNRETNSPSVFYPQANT,22500

row,Sequence,transcriptional activation domain activity
1,NLNSLNQSEEEGHIGRWPPLGYEAVSAEQKSAVQLRESQAGASISNNMNFKAN,48200
2,MNFTDIYFSDIIYVLLLYLLILFTFFLDLLISFTFVTLYSILFLFVLYSFILN,70500
3,EDLRAAMEEEEEVEENEAEEEWVDVMKKHRVQASRLELLASGVGTGRTTSPVD,15900
4,GGEGRGGHPAACRGGCFARYPFTPSFLLYFLLLFFYRGVHVPISFFFLFLFLF,46500
5,ISLGDFIVTLNYLFCYFLMQAPSLKLKPTSLFFFFLCIWLDFVLCLLILLRVA,46400
6,MALFRALPLKIRNLIYLKLLNVSPLWISPIWIITDYYKERPIPLLKGLSLFLV,45400
7,SLYRVWDCKSTMLAFSKYIPQIHSPSALEYALVSMGSDFVLFLLRRIFEILKK,55500
8,PAHSLLELIQLMKRKAFVCWYLFTIVIVLLLLLWIFLSVNYFHCIKPINFNTD,34800
9,GRTNVALPIYLFVFGELIDAYENRHIHHMDRIKMVLRMWFFKSIWKSFLQGAG,56300
10,MHYTTLLYFIYISFNFFTLILILFFNPFFFVSILSFSFLLFLFCCCSISEVVV,64300
11,RKPESNEKTEGANGEGHDGTRRRQSTRGRGRAGRGRGGRARGERGEKKEEGAE,14100
12,SPTSAFGTASAPAATSAFGAPATGAAGGGGGGFSAFAGKPAAFGGAAPAPAPA,46100
13,LLVTLMQVPDTDQVVLFNKVLSVIVLVMAHHHELGGPRFDQRPFLRLFSSILA,43800
14,SFSAYFIACCVVIHVTQLVGSPLYLFNKPLYYAYMARTKQSFGVLVTTITQWW,68900
15,KEKEKQERDARRREKEGAAAAAAGEKRKVEEGSAGGEAVKKAKVGAAAAAVAA,47800
16,WLIKPEQNNGTWVADVLWPKLNLDLQWIASHWNQSSWDLWWPPVWGVLTGLPL,67700
17,MTNRLHIICHICVFYGYVLMFPAITSYYFILLCILILILHLFIFILAHFYKDR,37300
18,TVSDEAIEVCVAAQAREGEANKSVREVIAEALNVPKSDVEIAKGMKSREKTVA,25700
19,KLLNYLQMDRAKVVSFTIFVFVWSYFRHYLNLVILWSVWTQYDLIPQFARRWV,40000
20,RETDAWACGVVLYALCARRLPFGEGAARVEGESGGRIGREGGAREGAAARRHW,32400
21,MVFGGIFFQLRGCAVGWSLGYSVSCFFLFFLFVFYAVSFLVWSGCGFLFSFFF,62700

row,Sequence,transcriptional activation domain activity
1,MFMGTLLLVFMDYGWAFFLDCYLWFFVTSLCFWYVKFCLLVGCCILVLCNVAW,31700
2,RALPPFFSFFPFFRSCPLPLLSLPFSHPCFPLRLVSFFFFLLFCFSFFFILTC,32900
3,STHSVSLLVVWALRRIRVNLVKLAGITYMVPFPLLLVLVMIGSSSYLSWIFWI,64900
4,RRRWINSTIHNLFEVVLLPDLCGFCCFSMRFVVLIDLIGTLTLPVSVIYLVYL,63200
5,RGVEKLKVEVGCFFWILGEGMIADERLKKFMKDMAHARHVVSSPDVCPNIITY,40800
6,GMIGFDPNVSLEKIYHGRFKDILHKGIQIADRTFTFLGFSHSSLRGHTCWFAA,75600
7,WIIPTPFGSHAFHPVDGYFQSVPYHLFIFIFPLHRVLYLTLFVLVNFWSIFIH,61100
8,NGNMIVNFFYKNIICIGCLWWFQIYCGWSSQYVFEYTYLLFWNVFWSLCPVIA,38800
9,KPHHKWIVPTPFSSHAFHPVDGYAQSVPYHLFVFIFPMQRHLYLFLFVAVNFW,44100
10,RKKREREAEKAEAKRKEERDARRREREKREEEREREREKEREERRRARERDRE,33900
11,MVWIRSKSPIKWLYIWLYYVRRPRINVASYTTKWVTIESELVFLAENFLDDKC,33300
12,ISIAQIEIAILFHISFFIFYFVSISFLLLYFICCILCTYVLLIYSLSFLYLVV,45800
13,HVAMRAAVKANNSVMHRLLRNWGENRRRHFHGLLLVRLFRTTLVFSCADEVAA,53300
14,HAEPGTGWACVKHTSDCTAVKKASGIPGRNFHRRPKYSVVVSAGERTWKAKQC,52400
15,RVELLLRSFKVFTLKTGEQCLDYLGDKFRVVLNLPEDWTNTAVGAWLVQKVIL,39700
16,ISYVSLEIRRTVFGLRLFAVAFYCTFFYWLMIRPNCKARFWCNFQPFSWIQAI,43100
17,MHEYARVALFGTVGVPLRVFISPAFLRALRSFAPHVIHLVDPILLRMQAHIAL,48700
18,MAEADQSSHHQPEPRRTHRKSRNGCVTCKQRRVKCDEGRPTCQKCSFGNRPCS,41900
19,GVCLKVGITKPKKPNSAERKTARVRLSTGRVVTAYIPGEGHNVQQHSVVLVRG,39500
20,GDAHAAPKGRKGGGKKRKAADEDGEEEGEAEKPAKKAGKRGKKGKATPTQEEG,12100
21,SRLLHLLLVTLGLLVVLLYSFFPSPDVFVLSPLRSPLFLLFSPSFFFCLFCLF,75400

row,Sequence,transcriptional activation domain activity
1,MGVLFCVWSKFMGLHYSLVFFFVYPFSHCFSLLFPFFFFTIMSWYIVFYHTCF,70300
2,PIPLGYGSLWMYEFLYFCLLHVVFTICDGIYLLRAELTLIILLHFLLSWDEGN,47600
3,MLPQLIWGCFIFGLASILLCVTFIPNPSHGYIRMRQSYNSFKLYIFGPSFTYL,74800
4,KGKGRENVPESESESEEDGDSSPPKAPVRGARGRGRGASRGRGRGRAPAPAAA,< 6570
5,SHNTHTLSLSLPFPSYSSYSDLIFLFLFLLLFFFFLFLFLFLFLFLFLFSLPF,34100
6,MVTISTDWFGWFVYLRFSGHLGVNCFYFIIRFFLFWVAFQLHVCIFSLPLVSC,51400
7,SYYNLLCFSLCVRVCVCFVLLIILSFVSLLCFSFLLCFHCVLPFFFFFVFFFF,49200
8,MSEPPRKRAKLACVTCNSRRVKCDVTDRQPCTNCITANVHCETRESKRGKHPR,40500
9,TQPIDIAASNQQNGEIAQLWDFNVDQFNMTPSNSSGSATISAPNSFTSDIPQY,57300
10,MWYFSRCTRWFLPLLLLPMPTAPPYFLLLFLLSFILHAKPCFYCVILITSLFI,60200
11,ADDVGKWGAGLPGSAAVGGAGGGEEEEGKEKKAGGGMAARVLISEVSIKLLVP,33800
12,PASRGYDRDRDYRRSPSPRERRERDRSRDRDYDRPRSPAVRATLSSSPAPAAL,22600
13,LFATLLKLRVDQLLIMMDPTDLIRSILLSNENHQVLSALDFCWTLMHSVFPLL,78100
14,EQRAEGVGERRGEGGGEAQRDGAADARRHERAAEGPVRHGERRREVQEGVQGV,23500
15,KSKKRSRVDEEDEEEYGASSSKAKAKKDKEKPAKKAAAKGKEKAAKGKASAKG,26200
16,MSWLVSISFMFYTFILPFYYYYKHSTTLFIYTYIYISLYIPIWFVYNHPYHLL,43000
17,KDATGDDAARARGGDKGGEREKAGGKGGRRGPKEKEKGKQKAKESKGAAGFAE,55600
18,SDDGGSSSEIIRVLGGPSIGDIRSRLIRLMPSAPPNSPLDAICRLLAYRLPVQ,37600
19,MFYNFLFSLFSLFHMLLLHQSLVSLSYPFFLPGNFPLSVTIFIIAPLSLFWFI,48900
20,LMDSGGPDVRPPPKRARKAINCEPCRNSKLKCDRNRPCSSCVLRGTTSQCYQG,43700
